Data taken from article PMC6147784, “Molecular mechanism of the Escherichia coli AhpC in the function of a chaperone under heat-shock conditions” (Scientific Reports, 2018).

Legend:
P0AE08 [1] = assay: SEC; 10 µM reduced EcAhpC (pre-reduced with 20 mM DTT, desalted) incubated at 53 °C for 60 min in 50 mM phosphate pH 7.0 with 1 mM TCEP, centrifuged; Superdex 200 10/300 GL; to HMW oligomers
P0AE08 [2] = assay: SEC; 10 µM oxidized EcAhpC incubated at 50 °C for 60 min in 50 mM phosphate pH 7.0, cooled to room temperature, centrifuged; Superdex 200 10/300 GL in 50 mM Tris pH 7; dimers to HMW oligomers
P0AE08 [3] = assay: SEC; 10 µM protein (oxidized form) incubated at 53 °C for 60 min in 50 mM phosphate pH 7.0, cooled to room temperature, centrifuged; Superdex 200 10/300 GL in 50 mM Tris pH 7; dimers to HMW oligomers
P0AE08 [4] = assay: SEC; 10 µM oxidized EcAhpC incubated at 48 °C for 60 min in 50 mM phosphate pH 7.0, cooled to room temperature, centrifuged; Superdex 200 10/300 GL in 50 mM Tris pH 7; dimers to HMW oligomers
[5] = biological target: the molecule itself; assay: dynamic light scattering; 1 mg/ml (50 µM) reduced EcAhpC (5 mM DTT) in 50 mM phosphate pH 7.0, equilibrated 10 min at 25 °C
[6] = biological target: the molecule itself; assay: SEC; 10 µM protein (oxidized form) incubated at 25 °C for 60 min in 50 mM phosphate pH 7.0, centrifuged; Superdex 200 10/300 GL in 50 mM Tris pH 7 at room temperature; mass estimated from standards

Protein | peak ratio (8 ml HMW peak to 16.5 ml peak) (P0AE08 [1]) | peak ratio (8.0 ml HMW peak to 15.5 ml dimer peak) (P0AE08 [2]) | peak ratio (8.0 ml HMW peak to 15.5 ml dimer peak) (P0AE08 [3]) | peak ratio (8.0 ml HMW peak to 15.5 ml dimer peak) (P0AE08 [4]) | stoichiometry N [5] | stoichiometry N [6]
Escherichia coli alkyl hydroperoxide reductase subunit C (EcAhpC), His-tagged recombinant wild type (protein) MSLINTKIKPFKNQAFKNGEFIEITEKDTEGRWSVFFFYPADFTFVCPTELGDVADHYEELQKLGVDVYAVSTDTHFTHKAWHSSSETIAKIKYAMIGDPTGALTRNFDNMREDEGLADRATFVVDPQGIIQAIEVTAEGIGRDASDLLRKIKAAQYVASHPGEVCPAKWKEGEATLAPSLDLVGKI | about 10:1 | 0.2:1 | 0.9:1 | 0.02:1 |  | 
Escherichia coli alkyl hydroperoxide reductase subunit C (EcAhpC), His-tagged recombinant wild type (enzyme, UniProt P0AE08 1-187, looked up, disulfide bonded (referred as oxidized form) as purified; reduced with DTT (kept with TCEP or DTT) in the assays marked as reduced, Alkyl hydroperoxide reductase subunit C (AhpC) of Escherichia coli, the entire enzyme; the C-terminal extension is printed as aa 173-187; The same construct was used as the oxidized (intermolecular disulphide) and as the reduced form; the assay's format tells which; also called WT EcAhpC; oxidized EcAhpC; source: E. coli, purified (Ni2+-NTA, gel filtration on Superdex 75)) MSLINTKIKPFKNQAFKNGEFIEITEKDTEGRWSVFFFYPADFTFVCPTELGDVADHYEELQKLGVDVYAVSTDTHFTHKAWHSSSETIAKIKYAMIGDPTGALTRNFDNMREDEGLADRATFVVDPQGIIQAIEVTAEGIGRDASDLLRKIKAAQYVASHPGEVCPAKWKEGEATLAPSLDLVGKI |  |  |  |  | 10 | 2
